{
  "source": "paper PMC10447241",
  "about": "(Nature, 2023)",
  "assay_in_all_cases": "FRET or BRET; GCGR–Rluc8 (or mutants) and βarr1–GFP2 (or mutants) co-transfected 1:1 in HEK293F cells; glucagon 1 pM to 10 μM; HBSS, 20 mM HEPES pH 7.4; coelenterazine 400a; EC50 is that of glucagon in inducing the BRET signal",
  "key": {"[1]": {"molecular_target": "the GCGR mutations R413A and R414A (as a group, for the printed range of the EC50 shift)"}, "[2]": {"molecular_target": "wild-type GCGR with Rluc8 at the C terminus (human) (UniProt P47871)", "sequence (P47871 26-477)": "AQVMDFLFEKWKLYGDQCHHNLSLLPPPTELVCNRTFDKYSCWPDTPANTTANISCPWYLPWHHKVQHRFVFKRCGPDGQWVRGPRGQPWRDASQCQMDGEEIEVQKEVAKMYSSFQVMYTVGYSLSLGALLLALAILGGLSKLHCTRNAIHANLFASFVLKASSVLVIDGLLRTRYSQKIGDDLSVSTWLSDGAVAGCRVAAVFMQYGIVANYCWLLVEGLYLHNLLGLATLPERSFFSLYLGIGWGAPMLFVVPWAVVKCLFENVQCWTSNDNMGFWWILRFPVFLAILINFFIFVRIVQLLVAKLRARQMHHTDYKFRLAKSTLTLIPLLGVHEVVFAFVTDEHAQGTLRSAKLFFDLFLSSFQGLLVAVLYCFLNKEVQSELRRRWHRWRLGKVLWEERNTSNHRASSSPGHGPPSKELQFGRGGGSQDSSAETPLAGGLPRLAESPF"}, "[3]": {"molecular_target": "T1, wild-type GCGR with Rluc8 at the C terminus (human, UniProt P47871 26-477)", "T1 construct": "glucagon receptor (GCGR), human, wild type; also called WT; source: HEK293F, transfected, in living cells; not shown: FLAG, N-terminal, kept; Rluc8, C-terminal, kept", "T1 sequence (P47871 26-477)": "as above", "details": "partners not purified"}},
  "data": [
    {"molecule": "human βarr1 with GFP2 at the C terminus (from UniProt P49407 1-418) (natural protein)", "values": [
      {"measurement": "fold shift of the glucagon EC50 in the GCGR–βarr1 BRET, mutant against wild type", "setting": "[1]", "result": "112 to 205", "unit": "fold"}
    ]},
    {"molecule": "ΔFL, the βarr1 mutant with the turn region of the finger loop removed, with GFP2 at the C terminus (from UniProt P49407 1-418) (natural protein)", "values": [
      {"measurement": "fold shift of the glucagon EC50 in the GCGR–βarr1 BRET, mutant against wild type", "setting": "[2]", "result": 24, "unit": "fold"}
    ]},
    {"molecule": "βarr1 3Q (K232Q, R236Q and K250Q) with GFP2 at the C terminus (natural protein, human, UniProt P49407 1-418, looked up, β-arrestin 1 (βarr1), human, triple mutant of the wild type; source: HEK293F, transfected, in living cells; not shown: GFP2, C-terminal, kept) MGDKGTRVFKKASPNGKLTVYLGKRDFVDHIDLVDPVDGVVLVDPEYLKERRVYVTLTCAFRYGREDLDVLGLTFRKDLFVANVQSFPPAPEDKKPLTRLQERLIKKLGEHAYPFTFEIPPNLPCSVTLQPGPEDTGKACGVDYEVKAFCAENLEEKIHKRNSVRLVIRKVQYAPERPGPQPTAETTRQFLMSDKPLHLEASLDKEIYYHGEPISVNVHVTNNTNKTVKKIQISVQQYADICLFNTAQYQCPVAMEEADDTVAPSSTFCKVYTLTPFLANNREKRGLALDGKLKHEDTNLASSTLLREGANREILGIIVSYKVKVKLVVSRGGLLGDLASSDVAVELPFTLMHPKPKEEPPHREVPENETPVDTNLIELDTNDDDIVFEDFARQRLKGMKDDKEEEEDGTGSPQLNNR", "values": [
      {"measurement": "fold drop of glucagon potency in the GCGR–βarr1 BRET, mutant against wild type", "setting": "[3]", "result": 15, "unit": "fold"}
    ]}
  ]
}
